Experimental data from patent US11124550B2, “Proteinaceous molecules and methods of use” (priority 2015, dated 2021).
Positions of bridges follow the written chain, without caps; N, C: chain ends. Residues, ends and D or L forms follow the SMILES beside them.

How the values were obtained:
[1] = test system: TG or DRG neurons; assay: Calcium imaging of cultured somatosensory neurons (Fura-2); format: cell-based, rat
[2] = after 72 hours, 37° C., 1 μM
[3] = target: T1, hNav1.1 (Homo sapiens, UniProt P35498); assay: Automated whole-cell patch clamp (QPatch 16X), sustained currents in HEK293 cells; format: cell-based; conditions: for fast inactivation and sustained current at end of depolarising pulse, hNav1.1: 300 nM; for EC50: HEK293 cells stably expressing hNav1.1, n=3, read-out: EC50 for evoking sustained currents at hNav1.1
T1 construct: expressed in transfected cells; host or cells: HEK293T
Method: The activity of recombinant Hm1b was assessed at hNav1.1-1.7. Sodium currents were measured from hNav channels stably expressed in HEK293 cells using an automated whole-cell patch-clamp electrophysiology system (QPatch 16X; Sophion, Ballerup, Denmark). The extracellular solution comprised 2 mM CaCl2), 1 mM MgCl2, 10 mM HEPES, 4 mM KCl, 145 mM NaCl, 10 mM D-glucose at pH 7.3, and 305 mOsm. The intracellular solution comprised 140 mM CsF, 1 mM/5 mM EGTA/CsOH, 10 mM HEPES, 10 mM NaCl at pH 7.3, osmolality 320 mOsm. The elicited currents were sampled at 25 kHz and filtered at 5 kHz. Cells were maintained at a holding potential of −80 mV and sodium currents were elicited by 210 ms voltage steps at 0 mV after a 50 ms conditioning step from −120 mV. For dose-response experiments, cells were incubated for 5 min with increasing concentrations of Hm1b. Peptide stock solutions were made up to 10 μM and serial dilutions were prepared in extracellular solution containing 0.1% BSA. Graphs and fittings were performed using Prism 7.0 (GraphPad Software, San Diego, Calif.). Numerical data are presented as mean SEM based on at least three experiments (n≥3).
The point mutation (Lys to Ser at position 11) was introduced into the pLIC-MBP-Hm1b expression plasmid (produced according to the methods of Example 7) by polymerase chain reaction (PCR) using mutagenic primers and standard protocols with Platinum Pfx DNA Polymerase (Invitrogen). Mutagenic primers were designed using the online tool PrimerX and synthesised by Integrated DNA Technologies, Inc. (Emu Heights, NSW). DNA from the mutant construct was isolated and sequenced to verify the desired mutation (AGRF, Brisbane, Australia). Plasmid DNA was isolated using ISOLATE II plasmid Mini Kit (Bioline, London, UK) for transformation into E. coli BL21 cells for recombinant peptide production. […].

[4] = in vitro; conditions: human, cerebrospinal or other body fluid
[5] = target: T1, hNav1.1; assay: Automated planar whole-cell patch clamp (Patchliner), hSCN1A HEK293T cells; format: cell-based
Description: (§1) To characterize the functional activity of Hm1a and Hm1b, HEK293T cells stably transfected with either hSCN1A, hSCN2A, hSCN3A, hSCN5A, hSCN9A or hSCN10A as well as CHO cells stably transfected with hSCN4A or hSCN8A were used for whole-cell patch-clamp analysis with a high throughput automated planar patch-clamp technology.
(§2) HEK293T cells stably transfected with either hSCN1A, hSCN2A, hSCN3A, hSCN5A, hSCN9A or hSCN10A were maintained in Dulbecco's Modified Eagle's Medium Nutrient Mixture F-12 (Invitrogen, Carlsbad, Calif., USA) supplemented with 10% (v/v) foetal bovine serum (FBS) (Invitrogen), 0.9% Penicillin/Streptomycin (P/S) solution and 100 μg/mL hygromycin or 100 μg/mL neomycin. CHO cells stably transfected with hSCN4A or hSCN8A were maintained in Ham's F12 Nutrient Mixture (Invitrogen, Carlsbad, Calif., USA) supplemented with 10% (v/v) FBS, 0.9% P/S solution and 100 μg/mL hygromycin. All cells were grown in T75 flasks (BD Biosciences, San Jose, Calif., USA) to ˜70% confluency.
Patch-clamp recordings were conducted in the whole-cell configuration using a Patchliner® (Nanion Technologies, Munich, Germany). Before recordings, cells were detached from culture flasks with Accutase Cell Detachment Solution (Innovative Cell Technologies Inc., San Diego, Calif., USA) and resuspended at a density of 1×10^6 to 5×10^7 per milliliter in 50% serum free media and 50% external recording solution v/v. The external recording solution comprised: 140 mM NaCl, 4 mM KCl, 1 mM MgCl2, 2 mM CaCl2), 5 mM D-glucose, 10 mM HEPES (pH adjusted to 7.4 with NaOH). The osmolarity of this solution was 298 mOsm. The internal recording solution comprised: 50 mM CsCl, 10 mM NaCl, 60 mM CsF, 2 mM MgCl2, 20 mM EGTA, 10 mM HEPES (pH adjusted to 7.2 with CsOH) and the osmolarity of this solution was 285 mOsm. […]
(§3) The voltage dependence of activation was studied by measuring the normalised peak currents during 100 ms depolarisations from −120 mV to +30 mV in 5 mV increments. The resulting current-voltage curve was fit to the equation I=[I+exp(−0.03937.z.(V−V1/2)]/g.(V−Vr), where I is current amplitude; z is apparent gating charge; V is test potential; V1/2 is half maximal voltage; g is a factor related to the maximum number of open channels; and Vr is reversal potential. Conductance was determined using G=I/(V−Vr), where G is conductance. The conductance values were then fit with the Boltzmann equation G=1/(1+exp[(V−V1/2)/a]), where a is the slope of the half-maximum, V is the potential of the given pulse and V1/2 is the potential for the half-maximal activation. To study steady-state fast inactivation, cells were held at conditioning pre-pulse potentials ranging from −120 mV to +30 mV in 5 mV increments from a holding potential of −120 mV and a test pulse at 0 mV for 20 ms. […]

[6] = target: T2, hNav1.2 (Homo sapiens, UniProt Q99250); assay: Automated planar whole-cell patch clamp (Patchliner), hSCN2A HEK293T cells; format: cell-based
T2 construct: expressed in transfected cells; host or cells: HEK293T
Description: as §1, §2
(§4) Patch-clamp recordings were conducted in the whole-cell configuration using a Patchliner® (Nanion Technologies, Munich, Germany). […]
as §3

[7] = target: T3, hNav1.3 (Homo sapiens, UniProt Q9NY46); assay: Automated planar whole-cell patch clamp (Patchliner), hSCN3A HEK293T cells; format: cell-based
T3 construct: expressed in transfected cells; host or cells: HEK293T
Description: as §1, §2, §4, §3

[8] = target: T4, hNav1.6 (Homo sapiens, UniProt Q9UQD0); assay: Automated planar whole-cell patch clamp (Patchliner), hSCN8A CHO cells; format: cell-based
T4 construct: expressed in transfected cells; host or cells: CHO
Description: as §1, §2, §4, §3

[9] = 5 nM and 50 nM, potentials more positive than −15 mV

T2 sequence (Q99250 whole entry): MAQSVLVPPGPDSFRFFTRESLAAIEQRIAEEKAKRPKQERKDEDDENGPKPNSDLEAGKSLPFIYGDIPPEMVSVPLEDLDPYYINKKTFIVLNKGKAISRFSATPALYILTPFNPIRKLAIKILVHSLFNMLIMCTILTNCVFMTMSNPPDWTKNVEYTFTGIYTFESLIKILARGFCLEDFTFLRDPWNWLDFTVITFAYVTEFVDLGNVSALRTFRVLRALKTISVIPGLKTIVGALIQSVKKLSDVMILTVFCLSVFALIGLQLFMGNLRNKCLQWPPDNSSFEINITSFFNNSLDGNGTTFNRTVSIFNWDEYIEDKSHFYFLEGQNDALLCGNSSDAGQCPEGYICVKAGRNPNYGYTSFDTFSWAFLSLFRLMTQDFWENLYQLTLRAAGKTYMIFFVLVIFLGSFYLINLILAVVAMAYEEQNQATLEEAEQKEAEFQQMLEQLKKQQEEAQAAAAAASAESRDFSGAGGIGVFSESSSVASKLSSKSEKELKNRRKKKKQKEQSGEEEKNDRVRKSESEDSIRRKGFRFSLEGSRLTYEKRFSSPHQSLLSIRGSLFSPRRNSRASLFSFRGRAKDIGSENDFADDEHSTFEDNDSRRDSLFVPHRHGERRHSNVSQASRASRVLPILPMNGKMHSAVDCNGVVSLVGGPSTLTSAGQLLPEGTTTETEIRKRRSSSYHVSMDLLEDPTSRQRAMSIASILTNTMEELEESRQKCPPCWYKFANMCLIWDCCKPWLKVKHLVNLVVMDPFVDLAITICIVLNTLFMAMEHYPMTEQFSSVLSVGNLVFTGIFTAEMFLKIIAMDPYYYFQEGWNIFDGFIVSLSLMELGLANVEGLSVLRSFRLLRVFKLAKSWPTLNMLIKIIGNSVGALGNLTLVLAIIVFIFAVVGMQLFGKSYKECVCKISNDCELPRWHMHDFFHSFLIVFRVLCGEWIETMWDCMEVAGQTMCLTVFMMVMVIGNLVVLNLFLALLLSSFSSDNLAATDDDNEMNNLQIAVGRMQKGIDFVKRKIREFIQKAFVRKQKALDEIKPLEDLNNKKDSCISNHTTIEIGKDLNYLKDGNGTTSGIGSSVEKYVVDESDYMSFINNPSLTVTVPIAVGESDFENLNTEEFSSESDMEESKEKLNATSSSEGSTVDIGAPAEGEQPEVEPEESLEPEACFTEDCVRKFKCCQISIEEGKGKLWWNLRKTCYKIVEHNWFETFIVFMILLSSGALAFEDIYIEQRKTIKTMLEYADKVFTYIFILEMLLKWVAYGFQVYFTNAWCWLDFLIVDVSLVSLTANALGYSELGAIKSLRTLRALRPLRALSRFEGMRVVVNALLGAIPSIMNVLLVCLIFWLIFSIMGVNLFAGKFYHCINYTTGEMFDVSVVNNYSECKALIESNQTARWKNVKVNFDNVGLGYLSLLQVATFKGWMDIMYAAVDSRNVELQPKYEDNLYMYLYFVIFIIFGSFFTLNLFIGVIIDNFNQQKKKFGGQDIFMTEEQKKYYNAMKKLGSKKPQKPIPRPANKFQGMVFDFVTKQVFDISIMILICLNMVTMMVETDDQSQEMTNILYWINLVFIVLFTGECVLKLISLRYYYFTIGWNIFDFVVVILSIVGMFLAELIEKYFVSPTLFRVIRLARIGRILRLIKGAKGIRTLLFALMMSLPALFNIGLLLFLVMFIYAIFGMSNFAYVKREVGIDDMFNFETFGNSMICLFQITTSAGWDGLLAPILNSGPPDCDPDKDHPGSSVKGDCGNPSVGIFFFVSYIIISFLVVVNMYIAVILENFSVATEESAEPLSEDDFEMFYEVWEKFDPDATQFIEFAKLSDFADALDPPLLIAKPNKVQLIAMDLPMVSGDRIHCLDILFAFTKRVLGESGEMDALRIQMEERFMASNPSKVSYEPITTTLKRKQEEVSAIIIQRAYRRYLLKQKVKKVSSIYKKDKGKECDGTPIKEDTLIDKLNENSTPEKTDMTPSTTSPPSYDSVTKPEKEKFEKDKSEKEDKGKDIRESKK
T4 sequence (Q9UQD0 whole entry): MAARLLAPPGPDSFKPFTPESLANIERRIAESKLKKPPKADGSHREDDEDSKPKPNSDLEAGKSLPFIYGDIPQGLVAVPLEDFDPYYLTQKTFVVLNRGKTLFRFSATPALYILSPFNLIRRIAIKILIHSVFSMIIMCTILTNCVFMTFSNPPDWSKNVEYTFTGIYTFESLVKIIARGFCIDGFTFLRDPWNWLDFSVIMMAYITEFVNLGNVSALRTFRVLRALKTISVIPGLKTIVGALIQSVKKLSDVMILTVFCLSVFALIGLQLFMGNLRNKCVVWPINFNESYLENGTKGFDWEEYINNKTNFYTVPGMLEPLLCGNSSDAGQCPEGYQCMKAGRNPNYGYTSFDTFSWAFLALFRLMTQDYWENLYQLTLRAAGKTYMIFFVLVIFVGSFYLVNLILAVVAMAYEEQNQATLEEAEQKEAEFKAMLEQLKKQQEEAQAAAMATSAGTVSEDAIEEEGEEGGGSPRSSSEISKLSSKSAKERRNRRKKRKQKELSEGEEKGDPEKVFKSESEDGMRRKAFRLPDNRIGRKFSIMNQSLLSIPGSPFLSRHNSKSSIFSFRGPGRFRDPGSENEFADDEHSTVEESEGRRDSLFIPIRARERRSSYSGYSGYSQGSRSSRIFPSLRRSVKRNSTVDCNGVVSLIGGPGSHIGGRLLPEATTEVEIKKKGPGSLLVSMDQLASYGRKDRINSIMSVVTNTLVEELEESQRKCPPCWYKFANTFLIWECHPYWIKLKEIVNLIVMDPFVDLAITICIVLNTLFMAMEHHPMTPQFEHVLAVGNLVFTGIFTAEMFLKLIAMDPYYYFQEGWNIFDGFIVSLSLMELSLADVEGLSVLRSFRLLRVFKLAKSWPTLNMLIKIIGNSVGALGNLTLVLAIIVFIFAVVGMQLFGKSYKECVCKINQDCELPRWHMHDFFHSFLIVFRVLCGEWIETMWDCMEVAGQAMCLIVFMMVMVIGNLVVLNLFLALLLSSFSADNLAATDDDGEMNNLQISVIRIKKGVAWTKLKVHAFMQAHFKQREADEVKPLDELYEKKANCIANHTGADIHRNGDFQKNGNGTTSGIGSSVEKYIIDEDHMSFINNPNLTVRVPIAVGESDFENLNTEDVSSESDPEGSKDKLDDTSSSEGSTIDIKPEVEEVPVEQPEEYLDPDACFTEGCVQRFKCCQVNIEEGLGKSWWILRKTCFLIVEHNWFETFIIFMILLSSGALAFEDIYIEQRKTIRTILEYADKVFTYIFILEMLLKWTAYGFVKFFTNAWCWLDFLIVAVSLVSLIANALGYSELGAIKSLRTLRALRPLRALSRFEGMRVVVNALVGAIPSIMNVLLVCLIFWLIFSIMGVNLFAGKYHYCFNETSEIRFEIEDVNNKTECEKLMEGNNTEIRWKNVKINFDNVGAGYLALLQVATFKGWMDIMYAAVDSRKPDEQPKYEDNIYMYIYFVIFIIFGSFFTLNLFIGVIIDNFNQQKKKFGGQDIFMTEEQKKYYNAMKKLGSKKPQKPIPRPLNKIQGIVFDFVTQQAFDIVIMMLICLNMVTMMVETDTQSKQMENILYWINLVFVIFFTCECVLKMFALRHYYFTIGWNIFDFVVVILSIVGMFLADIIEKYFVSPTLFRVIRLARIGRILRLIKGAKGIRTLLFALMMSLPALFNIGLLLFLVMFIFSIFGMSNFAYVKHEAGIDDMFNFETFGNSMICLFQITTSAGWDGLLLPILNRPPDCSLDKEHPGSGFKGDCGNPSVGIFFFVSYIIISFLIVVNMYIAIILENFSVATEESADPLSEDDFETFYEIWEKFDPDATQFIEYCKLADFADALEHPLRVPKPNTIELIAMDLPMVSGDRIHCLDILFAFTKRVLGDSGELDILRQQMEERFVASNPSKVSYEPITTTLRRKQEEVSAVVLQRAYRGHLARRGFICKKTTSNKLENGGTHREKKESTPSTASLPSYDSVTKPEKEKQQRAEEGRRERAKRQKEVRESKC

Molecule: O=C(Nc1ccc(S(=O)(=O)Nc2nccs2)cc1)C(c1ccccc1)c1ccccc1 [ICA-121431]
- calcium responses induced by Hm1a ([1]; ICA-121431 500 nM): greatly diminish
- responses to SGTx1 ([1]; in presence of ICA-121431): did not attenuate

Molecule: NC1=N[C@H](O)[C@H]2[C@H]3O[C@]4(O)O[C@@H]([C@@H](O)[C@@]2(N1)[C@@H]4O)[C@]3(O)CO [TTX, Tetrodotoxin]
- Hm1a-evoked calcium responses [1]: blocked

Molecule: CC[C@H](C)[C@@H]1NC(=O)[C@H](CCCNC(=N)N)NC(=O)[C@H](CC(=O)O)NC(=O)[C@H](CCSC)NC(=O)[C@H](CCCNC(=N)N)NC(=O)CNC(=O)CNC(=O)[C@H](Cc2ccccc2)NC(=O)[C@@H](NC(=O)[C@H](CO)NC(=O)[C@H](CO)NC(=O)[C@H](CCCNC(=N)N)NC(=O)[C@H](CCCNC(=N)N)NC(=O)[C@H](CC(C)C)NC(=O)[C@@H](N)CO)CSSC[C@@H](C(=O)N[C@@H](CC(N)=O)C(=O)N[C@@H](CO)C(=O)N[C@@H](Cc2ccccc2)C(=O)N[C@@H](CCCNC(=N)N)C(=O)N[C@@H](Cc2ccc(O)cc2)C(=O)O)NC(=O)CNC(=O)[C@H](CC(C)C)NC(=O)CNC(=O)[C@H](CO)NC(=O)[C@H](CCC(N)=O)NC(=O)[C@H](C)NC(=O)CNC1=O [hANP]
- peptide remaining in human CSF [2]: no detectable

Molecule: CC(C)C[C@@H]1NC(=O)[C@H](Cc2c[nH]cn2)NC(=O)[C@H](CCCCN)NC(=O)[C@@H]2CSSC[C@H](NC(=O)[C@H](CCC(=O)O)NC(=O)[C@@H](N)CO)C(=O)N[C@@H](CCCNC(=N)N)C(=O)N[C@@H](Cc3ccc(O)cc3)C(=O)N[C@@H](CC(C)C)C(=O)N[C@@H](Cc3ccccc3)C(=O)NCC(=O)NCC(=O)N[C@H]3CSSC[C@H](NC(=O)CNC1=O)C(=O)N[C@@H](CCCNC(=N)N)C(=O)N[C@@H]([C@@H](C)O)C(=O)N[C@@H](CC(=O)O)C(=O)N[C@@H](CC(C)C)C(=O)N[C@@H](Cc1ccc(O)cc1)C(=O)N[C@@H](Cc1ccc(O)cc1)C(=O)N[C@H](C(=O)N[C@@H](C)C(=O)N[C@@H](Cc1c[nH]c4ccccc14)C(=O)N[C@@H](CC(=O)O)C(=O)NCC(=O)N[C@H](C(=O)N[C@@H](Cc1ccccc1)C(=O)O)[C@@H](C)O)CSSC[C@H](NC(=O)[C@H](CC(=O)O)NC(=O)[C@H](C)NC(=O)[C@H]([C@@H](C)O)NC(=O)[C@H]([C@@H](C)O)NC(=O)[C@H](CO)NC3=O)C(=O)N2 [recombinant Hm1b[K11S]] (H-SECRYLFGGCSTTADCCKHLGCRTDLYYCAWDGTF-OH; disulfide 3-17, 10-22, 16-29)
- fast inactivation and sustained current at end of depolarising pulse, hNav1.1 [3]: delayed fast inactivation
- EC50 [3]: 39.5 nM

Molecule: CC(C)C[C@@H]1NC(=O)[C@H](Cc2c[nH]cn2)NC(=O)[C@H](CCCCN)NC(=O)[C@@H]2CSSC[C@H](NC(=O)[C@H](CCC(=O)O)NC(=O)[C@@H](N)CO)C(=O)N[C@@H](CCCNC(=N)N)C(=O)N[C@@H](Cc3ccc(O)cc3)C(=O)N[C@@H](CC(C)C)C(=O)N[C@@H](Cc3ccccc3)C(=O)NCC(=O)NCC(=O)N[C@H]3CSSC[C@H](NC(=O)CNC1=O)C(=O)N[C@@H](CCCNC(=N)N)C(=O)N[C@@H]([C@@H](C)O)C(=O)N[C@@H](CC(=O)O)C(=O)N[C@@H](CC(C)C)C(=O)N[C@@H](Cc1ccc(O)cc1)C(=O)N[C@@H](Cc1ccc(O)cc1)C(=O)N[C@H](C(=O)N[C@@H](C)C(=O)N[C@@H](Cc1c[nH]c4ccccc14)C(=O)N[C@@H](CC(=O)O)C(=O)NCC(=O)N[C@H](C(=O)N[C@@H](Cc1ccccc1)C(=O)O)[C@@H](C)O)CSSC[C@H](NC(=O)[C@H](CC(=O)O)NC(=O)[C@H](C)NC(=O)[C@H]([C@@H](C)O)NC(=O)[C@H]([C@@H](C)O)NC(=O)[C@H](CCCCN)NC3=O)C(=O)N2 [recombinant Hm1b]
- fast inactivation and sustained current at end of depolarising pulse, hNav1.1 [3]: delayed fast inactivation and induced a sustained current
- EC50 [3]: 18.5 nM
- selectivity for hNav1.1 over hNav1.2, hNav1.4, hNav1.5, hNav1.6 and hNav1.7 ([3]; sustained currents at 300 nM): very high level of selectivity

Molecule: CSCC[C@@H]1NC(=O)[C@H](CC(C)C)NC(=O)[C@H](CCCNC(=N)N)NC(=O)[C@H](CO)NC(=O)[C@@H]2CSSC[C@@H]3NC(=O)[C@H](CO)NC(=O)CNC(=O)[C@H]([C@@H](C)O)NC(=O)[C@H](CSSC[C@H](N)C(=O)N[C@@H](CCCCN)C(=O)NCC(=O)N[C@@H](CCCCN)C(=O)NCC(=O)N[C@@H](C)C(=O)N[C@@H](CCCCN)C(=O)N2)NC(=O)[C@H](CSSC[C@@H](C(N)=O)NC(=O)[C@H](CCCCN)NC(=O)CNC(=O)[C@H](CO)NC(=O)[C@H](CCCNC(=N)N)NC3=O)NC(=O)[C@H](CC(=O)O)NC(=O)[C@H](Cc2ccc(O)cc2)NC1=O [ω-conotoxin MVIIA]
- remaining at 72 h [4]: ~10%

Molecule: ECRYLFGGCKTTADCCKHLGCRTDLYYCAWDGTF-NH2 [Hm1b]
- voltage-dependence of fast inactivation of hNav1.1 [5]: does not appear to alter
- voltage-dependence of steady-state activation of hNav1.1 [5]: slight hyperpolarizing shift
- time constants of fast inactivation of hNav1.1 [5, 9]: increases
- hNav1.1 channel inactivation ([5]; 1, 5 or 50 nM): potently inhibits
- voltage-dependence of fast inactivation of hNav1.2 [6]: does not appear to alter
- hNav1.2 channel inactivation ([6]; 1 nM, 5 nM or 50 nM): did not have a significant effect
- time constants of fast inactivation of hNav1.2 ([6]; 50 nM, potentials more positive than −10 mV): increases
- voltage-dependence of fast inactivation of hNav1.3 [7]: does not appear to alter
- hNav1.3 channel inactivation ([7]; 5 nM and 50 nM): slight inhibitory effect
- time constants of fast inactivation of hNav1.3 [7, 9]: increased
- time constants of fast inactivation of hNav1.6 [8]: did not have an effect
- voltage-dependence of fast inactivation of hNav1.6 [8]: does not appear to alter
- hNav1.6 channel inactivation ([8]; 5 nM and 50 nM, slight inhibitory effect, compared with hNav1.3): to a lesser extent
